Reference: patent US7531516B2, “Peptidic compounds selectively binding to P-selectin” (Astellas Pharma Europe B.V., priority 2001, dated 2009)
One block for each molecule: values may come before it. Positions of bridges follow the written chain, without caps; N, C: chain ends. Residues, ends and D or L forms follow the SMILES beside them. No end group written: not given here. *: point of attachment. Biotin = O=C1N[C@H]2[C@H](CS[C@H]2CCCCC(=O)*)N1; Ahx = NCCCCCC(=O)O

Columns and labels:
human p-selectin = molecular target: T1, human p-selectin (Homo sapiens, UniProt P16109); experiment: Competition ELISA: displacement of TM11-strepPO complex from coated chimeric human P-selectin; format: binding; settings: competition with 2.5 nM TM11-strepPO, 1 hour at 4° C.; linear compounds in the presence of DTT; read-out: Affinity (affinity constant)
T1 sequence (P16109 42-830): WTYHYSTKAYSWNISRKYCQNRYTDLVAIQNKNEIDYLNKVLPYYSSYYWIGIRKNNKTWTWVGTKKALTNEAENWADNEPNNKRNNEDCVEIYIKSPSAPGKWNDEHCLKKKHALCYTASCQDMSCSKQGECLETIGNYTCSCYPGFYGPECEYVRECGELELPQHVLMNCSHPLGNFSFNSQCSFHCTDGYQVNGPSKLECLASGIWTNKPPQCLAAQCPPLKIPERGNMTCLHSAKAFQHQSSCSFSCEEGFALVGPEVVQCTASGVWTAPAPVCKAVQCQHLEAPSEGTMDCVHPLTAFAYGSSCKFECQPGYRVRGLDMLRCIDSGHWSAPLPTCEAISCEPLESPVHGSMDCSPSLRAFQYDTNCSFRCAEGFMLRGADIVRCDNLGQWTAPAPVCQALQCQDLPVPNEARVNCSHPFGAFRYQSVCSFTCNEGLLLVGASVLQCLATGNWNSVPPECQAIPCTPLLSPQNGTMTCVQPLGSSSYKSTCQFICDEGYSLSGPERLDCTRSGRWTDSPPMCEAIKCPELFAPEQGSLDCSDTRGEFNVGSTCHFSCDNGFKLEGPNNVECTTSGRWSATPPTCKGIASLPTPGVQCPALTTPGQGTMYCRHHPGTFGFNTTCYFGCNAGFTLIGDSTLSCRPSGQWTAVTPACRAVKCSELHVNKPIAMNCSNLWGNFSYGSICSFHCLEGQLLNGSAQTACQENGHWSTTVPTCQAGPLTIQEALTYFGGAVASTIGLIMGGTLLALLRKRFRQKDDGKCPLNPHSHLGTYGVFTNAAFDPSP
Procedure: The affinity of the compounds to P-selectin was investigated by using an adapted ELISA method. Streptavidin-horseradishperoxidase (strepPO) was incubated with TM11-biotin in a 1 to 4 molar ratio for 2 hours at RT, hereby forming a tetrameric peptide strepPO-complex. For competition studies, microtiter wells were coated with chimeric human p-selectin as described for the isolation of p-selectin binding phage. Wells were then incubated with 2.5 nM TM11-strepPO complex in assay buffer for 1 hour at 4° C., in the presence of titered amounts of peptides to compete for binding to human p-selectin. Linear compounds were tested in the presence of DTT to prevent aggregate formation. After washing 6 times with assay buffer, the wells were incubated with 100 μl TMB/H2O2 for 15 min at RT. The reaction was stopped with 1 M H2SO4 and the absorbance read at 450 nm. From the results, the affinity constants were calculated: […]

human P-selectin-IgG = experiment: Binding of [3H]-cholesterol labeled sulfatide liposomes to human P-selectin-IgG; settings: liposomes carrying 22% of sulfatides, 2 hours at 4° C.
Procedure: Liposomes were prepared by sonication from egg yolk phosphatidylcholine, cholesterol, and sulfatides, all dissolved in chloroform/methanol (1:1, v/v), at weight ratios of 4:0.8:1.33. A tracer amount of [^3H]-cholesterol (1.3×10^8 dpm) was added, and the mixture was dried under a stream of nitrogen. The resulting lipid layer was vortexed in PBS and subsequently sonicated, resulting in liposomes with mean particle diameters of 59-62 nm.
Fc-specific goat anti-human IgG in coating buffer (50 mM NaHCO3, pH 9.6) was incubated in a high binding 96 well plate. The next day, wells were washed with assay buffer (20 mM HEPES, 150 mM NaCl, 1 mM CaCl2, pH 7.4) and incubated with blocking buffer (3% BSA in assay buffer). After washing, wells were incubated with human P-selectin-IgG, washed, and subsequently incubated with the [^3H]-cholesterol labeled liposomes in the presence or absence of the compounds below and antibodies for 2 hours at 4° C. After removal of unbound liposomes, bound liposomes were collected and counted using a scintillation counter.

Human platelets = experiment: Inhibition of platelet aggregation; format: cell-based; settings: human platelets activated by ADV
Procedure: Human platelets were activated by ADV, and the extent of platelet aggregation was measured in the presence or absence of EWVDV (SEQ ID No: 19)-containing peptides.

[1] = molecular target: T2, chimeric human p-selectin (human, UniProt P16109 42-321); experiment: competition ELISA; coated chimeric human P-selectin, competitor 2.5 nM TM11-strepPO complex; column head 'Affinity'
T2 construct: also called human P-selectin-IgG
T2 sequence (looked up): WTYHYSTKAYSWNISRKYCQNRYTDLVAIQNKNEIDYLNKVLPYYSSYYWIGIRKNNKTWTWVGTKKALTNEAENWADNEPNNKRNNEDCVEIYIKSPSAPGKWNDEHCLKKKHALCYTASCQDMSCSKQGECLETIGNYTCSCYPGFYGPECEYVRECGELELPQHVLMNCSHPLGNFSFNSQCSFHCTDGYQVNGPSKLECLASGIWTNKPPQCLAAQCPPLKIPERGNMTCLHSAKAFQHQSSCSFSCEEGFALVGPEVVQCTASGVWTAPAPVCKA
Procedure: (§1) Linear compounds were tested in the presence of DTT to prevent aggregate formation. After washing 6 times with assay buffer, the wells were incubated with 100 μl TMB/H_2O_2 for 15 min at RT. The reaction was stopped with 1 M H_2SO_4 and the absorbance read at 450 nm. From the results, the affinity constants were calculated: […]

[2] = molecular target: T2, chimeric human p-selectin; experiment: affinity to human P-selectin, prepared and tested as in example 1 (competition ELISA against TM11-strepPO complex); column head 'Affinity [µM]'
Procedure: as §1

Molecule: CC(C)C[C@@H]1NC(=O)[C@H](CO)NC(=O)[C@H](CO)NC(=O)[C@H](C(C)C)NC(=O)[C@H](CC(=O)O)NC(=O)[C@H](C(C)C)NC(=O)[C@H](Cc2c[nH]c3ccccc23)NC(=O)[C@H](CCC(=O)O)NC(=O)[C@H](C(C)C)NC(=O)[C@H](CC(=O)O)NC(=O)[C@@H](NC(=O)CCCCCNC(=O)CCCC[C@@H]2SC[C@@H]3NC(=O)N[C@@H]32)CSSC[C@@H](C(=O)O)NC(=O)[C@@H]2CCCN2C(=O)[C@H](CC(C)C)NC(=O)[C@H](CC(=O)O)NC(=O)[C@H](Cc2c[nH]c3ccccc23)NC(=O)[C@H](CCC(=O)O)NC1=O [Biotin-TM11(cyclic)] ({Biotin-Ahx}-CDVEWVDVSSLEWDLPC-OH; disulfide 1-17)
IC50 (human p-selectin): 2000 nM

Molecule: CC(C)C[C@H](NC(=O)[C@H](CO)NC(=O)[C@H](CO)NC(=O)[C@@H](NC(=O)[C@H](CC(=O)O)NC(=O)[C@@H](NC(=O)[C@H](Cc1c[nH]c2ccccc12)NC(=O)[C@H](CCC(=O)O)NC(=O)[C@@H](NC(=O)[C@H](CC(=O)O)NC(=O)[C@H](CS)NC(=O)CCCCCNC(=O)CCCC[C@@H]1SC[C@@H]2NC(=O)N[C@@H]21)C(C)C)C(C)C)C(C)C)C(=O)N[C@@H](CCC(=O)O)C(=O)N[C@@H](Cc1c[nH]c2ccccc12)C(=O)N[C@@H](CC(=O)O)C(=O)N[C@@H](CC(C)C)C(=O)N1CCC[C@H]1C(=O)N[C@@H](CS)C(=O)O [Biotin-TM11] ({Biotin-Ahx}-CDVEWVDVSSLEWDLPC-OH)
IC50 (human p-selectin): 2000 nM

Molecule: D V E W V D V A (DVEWVDVA) [A27]
inhibition of the binding of sulfatides to P-selectin (human P-selectin-IgG): significantly inhibited

Molecule: D V E W V D V S (DVEWVDVS) [A19]
inhibition of the binding of sulfatides to P-selectin (human P-selectin-IgG): significantly inhibited
aggregation reduced (second phase of platelet aggregation) (Human platelets): about 45%

Molecule: DVEAVDVS [D V E A V D V S, reference compound]
inhibition of the binding of sulfatides to P-selectin (human P-selectin-IgG): did not

B1: Biotin-TM1 (peptide)
peptide: {Biotin-Ahx}-CPEFVDVEGDPGALLAC
modifications: cysteine pairing not given here
notes: Linear compounds were tested in the presence of DTT
IC50 [1]: 82 µM

B2: Biotin-TM16 (peptide)
peptide: {Biotin-Ahx}-CPDWVDVFKLVEGVMLC
modifications: cysteine pairing not given here
notes: as for B1
IC50 [1]: 12 µM

Molecule: {Biotin-Ahx}-EWVKVA (Comparative compound)
IC50 [2]: 13 mM

B3: Biotin-A17 (peptide)
peptide: {Biotin-Ahx}-CDVEWVDVSC
modifications: cysteine pairing not given here
notes: Only TM11 is said to have been prepared in a cyclized form as well
IC50 [1]: 0.1 µM

B4: Biotin-TM2 (peptide)
peptide: {Biotin-Ahx}-CGWVDVIASGDTATLAC
modifications: cysteine pairing not given here
notes: as for B1
IC50 [1]: 49 µM

Molecule: {Biotin-Ahx}-DVEAVDVS (Comparative compound)
IC50 [2]: 400 mM

Further lines, with some results ahead:

IC50 (human p-selectin): 12000 nM
Molecule: CC(C)[C@H](NC(=O)[C@H](CC(=O)O)NC(=O)[C@@H](NC(=O)[C@H](Cc1c[nH]c2ccccc12)NC(=O)[C@H](CCC(=O)O)NC(=O)[C@@H](NC(=O)[C@H](CC(=O)O)NC(=O)CCCCCNC(=O)CCCC[C@@H]1SC[C@@H]2NC(=O)N[C@@H]21)C(C)C)C(C)C)C(=O)N[C@@H](CO)C(=O)O [Biotin-A19] ({Biotin-Ahx}-DVEWVDVS-OH)

inhibition of the binding of sulfatides to P-selectin (human P-selectin-IgG): significantly inhibited
Molecule: C D V E W V D V S C (CDVEWVDVSC) [A17]
aggregation reduced (second phase of platelet aggregation) (Human platelets): ~25%

inhibition of the binding of sulfatides to P-selectin (human P-selectin-IgG): did not
Molecule: EWVDV [core motif peptide]

IC50 [1]: 19 µM
Molecule: {Biotin-Ahx}-VGLDPRDWVDVSDYA [Biotin-SH31]

IC50 [1]: 2 µM
Molecule: {Biotin-Ahx}-CDVEWVDVSSLEWDLPC (disulfide 1-17) [Biotin-TM11(cyclic)]

IC50 [2]: 13 mM
Molecule: {Biotin-Ahx}-DVEWVDAS (Comparative compound)

IC50 [2]: 21 mM
Molecule: {Biotin-Ahx}-DVEWVAVS (Comparative compound)

IC50 [2]: 1.4 mM
Molecule: {Biotin-Ahx}-DVEWADVS (Comparative compound)
